Key:
[1] = molecular target: Fc receptors on the surface of THP1 cells (Fc bearing human myeloid/monocytic cell line) (human); assay: cell-based or functional assay
[2] = molecular target: Fc receptors on the surface of THP1 cells (Fc bearing human myeloid/monocytic cell line) (human); assay: FACS, mean fluorescence intensity of AF-647 labeled protein bound to THP1 cells

Row | fold reduction in Fc receptor binding relative to RSLV-124 [2] [fold] | Substance | cell death of THP1 cells by FACS, RNase Fc mutant compared to wild type [1] [fold] | fold decrease in cell death of THP1 cells (Annexin V binding and propidium iodide binding), RNase-Fc mutant compared to RNase-wild type Fc fusion protein [1] [fold]
1 | – | RNase-Fc fusion protein with a mutant Fc (P238S, P331S) (mtRNasemgIgG) | 3 to 5 | 3
2 | > 4 | RSLV-132 (wthRNase-SCC-mthIgG1 P238S P331S) (Fc fusion) | – | –

From patent publication US20140044711A1
